B1: MKK7 D-site peptide (second D-site) / JNK1 alpha1 (MAPK8 isoform 1) L198A, full length (parent complex)
chain 1: SQPQRPRPTLQLPLANEAFEQP
chain 2: MSRSKRDNNFYSVEIGDSTFTVLKRYQNLKPIGSGAQGIVCAAYDAILERNVAIKKLSRPFQNQTHAKRAYRELVLMKCVNHKNIIGLLNVFTPQKSLEEFQDVYIVMELMDANLCQVIQMELDHERMSYLLYQMLCGIKHLHSAGIIHRDLKPSNIVVKSDCTLKILDFGLARTAGTSFMMTPYVVTRYYRAPEVIAGMGYKENVDLWSVGCIMGEMVCHKILFPGRDYIDQWNKVIEQLGTPCPEFMKKLQPTVRTYVENRPKYAGYSFEKLFPDVLFPADSEHNKLKASQARDLLSKMLVIDASKRISVDEALQHPYINVWYDPSEAEAPPPKIPDKQLDEREHTIEEWKELIYKEVMDLEERTKNGVIRGQPSPLAQVQQ

Variants of: B1

Variant | screen value
chain 1 L10F | 0.606 Z-score of the enrichment rate within one screen of 711 sequences
chain 1 L10E | -0.301 Z-score of the enrichment rate within one screen of 711 sequences
chain 1 L10M | 1.08 Z-score of the enrichment rate within one screen of 711 sequences
chain 1 L10Q | -0.301 Z-score of the enrichment rate within one screen of 711 sequences
chain 1 L10I | 0.256 Z-score of the enrichment rate within one screen of 711 sequences
chain 1 L10K | -0.134 Z-score of the enrichment rate within one screen of 711 sequences
chain 1 L10H | -0.321 Z-score of the enrichment rate within one screen of 711 sequences
chain 1 L10Y | -0.115 Z-score of the enrichment rate within one screen of 711 sequences
chain 1 L10W | -0.417 Z-score of the enrichment rate within one screen of 711 sequences
chain 1 L10D | -0.874 Z-score of the enrichment rate within one screen of 711 sequences
chain 1 P6A, chain 1 P8A | 0.889 Z-score of the enrichment rate within one screen of 711 sequences
chain 1 N16R | 1.4 Z-score of the enrichment rate within one screen of 711 sequences
chain 1 N16I | 1.55 Z-score of the enrichment rate within one screen of 711 sequences
chain 1 N16D | 1.03 Z-score of the enrichment rate within one screen of 711 sequences
chain 1 N16M | 1.27 Z-score of the enrichment rate within one screen of 711 sequences
chain 1 N16Y | 1.82 Z-score of the enrichment rate within one screen of 711 sequences
chain 1 N16F | 1.8 Z-score of the enrichment rate within one screen of 711 sequences
chain 1 N16K | 1.7 Z-score of the enrichment rate within one screen of 711 sequences
chain 1 P8H | 0.889 Z-score of the enrichment rate within one screen of 711 sequences
chain 1 P8T | 0.655 Z-score of the enrichment rate within one screen of 711 sequences
chain 1 P8G | 0.304 Z-score of the enrichment rate within one screen of 711 sequences
chain 1 P8D | 0.613 Z-score of the enrichment rate within one screen of 711 sequences

Variant | screen value
chain 1 P8S | 0.564 Z-score of the enrichment rate within one screen of 711 sequences
chain 1 P8R | 0.631 Z-score of the enrichment rate within one screen of 711 sequences
chain 1 P6A, chain 1 Q11A | 1.17 Z-score of the enrichment rate within one screen of 711 sequences
chain 1 P6W | 1.02 Z-score of the enrichment rate within one screen of 711 sequences
chain 1 P6E | 1.2 Z-score of the enrichment rate within one screen of 711 sequences
chain 1 P6G | 0.655 Z-score of the enrichment rate within one screen of 711 sequences
chain 1 P6I | 1.35 Z-score of the enrichment rate within one screen of 711 sequences
chain 1 P6S | 0.764 Z-score of the enrichment rate within one screen of 711 sequences
chain 1 P6D | 0.975 Z-score of the enrichment rate within one screen of 711 sequences
chain 1 P6R | 1.25 Z-score of the enrichment rate within one screen of 711 sequences
chain 1 L14A, chain 1 N16A | 0.658 Z-score of the enrichment rate within one screen of 711 sequences
chain 1 P6A, chain 1 N16A | 1.19 Z-score of the enrichment rate within one screen of 711 sequences
chain 1 A15H | 1.57 Z-score of the enrichment rate within one screen of 711 sequences
chain 1 A15P | 1.61 Z-score of the enrichment rate within one screen of 711 sequences
chain 1 A15Y | 1.64 Z-score of the enrichment rate within one screen of 711 sequences
chain 1 A15M | 1.57 Z-score of the enrichment rate within one screen of 711 sequences
chain 1 A15R | 1.69 Z-score of the enrichment rate within one screen of 711 sequences
chain 1 A15G | 1.63 Z-score of the enrichment rate within one screen of 711 sequences
chain 1 A15L | 1.8 Z-score of the enrichment rate within one screen of 711 sequences
chain 1 P8A, chain 1 N16A | 0.523 Z-score of the enrichment rate within one screen of 711 sequences
chain 1 L12A, chain 1 N16A | -0.599 Z-score of the enrichment rate within one screen of 711 sequences

Now from value to variant:

screen value | Variant
0.391 Z-score of the enrichment rate within one screen of 711 sequences | chain 1 R7W
0.435 Z-score of the enrichment rate within one screen of 711 sequences | chain 1 R7H
-0.155 Z-score of the enrichment rate within one screen of 711 sequences | chain 1 R7S
1.19 Z-score of the enrichment rate within one screen of 711 sequences | chain 1 T9A, chain 1 Q11A
1.24 Z-score of the enrichment rate within one screen of 711 sequences | chain 1 P13R
1.41 Z-score of the enrichment rate within one screen of 711 sequences | chain 1 P13Y
1.34 Z-score of the enrichment rate within one screen of 711 sequences | chain 1 P13E
0.957 Z-score of the enrichment rate within one screen of 711 sequences | chain 1 P13I
1.62 Z-score of the enrichment rate within one screen of 711 sequences | chain 1 P13F
1.14 Z-score of the enrichment rate within one screen of 711 sequences | chain 1 P13A
1.26 Z-score of the enrichment rate within one screen of 711 sequences | chain 1 P13W
1.03 Z-score of the enrichment rate within one screen of 711 sequences | chain 1 P13T
0.574 Z-score of the enrichment rate within one screen of 711 sequences | chain 1 P8Y
-0.309 Z-score of the enrichment rate within one screen of 711 sequences | chain 1 Q4A, chain 1 L12A
1.67 Z-score of the enrichment rate within one screen of 711 sequences | chain 1 Q11L
1.59 Z-score of the enrichment rate within one screen of 711 sequences | chain 1 Q11R

screen value | Variant
1.38 Z-score of the enrichment rate within one screen of 711 sequences | chain 1 Q11V
1.71 Z-score of the enrichment rate within one screen of 711 sequences | chain 1 Q11D
1.43 Z-score of the enrichment rate within one screen of 711 sequences | chain 1 Q11M
1.58 Z-score of the enrichment rate within one screen of 711 sequences | chain 1 Q11K
0.166 Z-score of the enrichment rate within one screen of 711 sequences | chain 1 R7A, chain 1 P13A
0.13 Z-score of the enrichment rate within one screen of 711 sequences | chain 1 T9A, chain 1 L14A
0.556 Z-score of the enrichment rate within one screen of 711 sequences | chain 1 P13A, chain 1 L14A
0.716 Z-score of the enrichment rate within one screen of 711 sequences | chain 1 R5M
0.699 Z-score of the enrichment rate within one screen of 711 sequences | chain 1 R5C
0.604 Z-score of the enrichment rate within one screen of 711 sequences | chain 1 R5N
1.36 Z-score of the enrichment rate within one screen of 711 sequences | chain 1 R5K
0.688 Z-score of the enrichment rate within one screen of 711 sequences | chain 1 R5H
1.12 Z-score of the enrichment rate within one screen of 711 sequences | chain 1 R5F
1.01 Z-score of the enrichment rate within one screen of 711 sequences | chain 1 R5T
1.01 Z-score of the enrichment rate within one screen of 711 sequences | chain 1 R5Q
0.242 Z-score of the enrichment rate within one screen of 711 sequences | chain 1 R5G
